In paper PMC11865472 one finds Kd data, which are given here for 21 substances.

In assay [1] the target is inhibin A (InhA), mature heterodimer (UniProt P05111). Description: SPR; TGF-β2 (b) or InhA (c) immobilised; BGZP-C mutants injected, 2-fold serial dilutions 500 - 15.6 nM; three consecutive repeats. For orientation: In SPR one partner is held on a chip, and binding of the other changes the refractive index at the surface.
For assay [2], the target named is biotinylated TGF-β2 homodimer. Put plainly: SPR. Conditions: surface: TGF-β2, read off a plot.
The target of assay [3] is TGF-β2 (growth factor domain, wild type) (human). Put plainly: SPR; TGF-β2 immobilised on the chip surface; ratBGO, zfBGO, ratBGO-zfBL or ratBGO-Y248A injected, 2-fold dilution series 500 - 31.3 nM; three consecutive repeats.
Assay [4] addresses biotin-TGF-β2 (minimally biotinylated TGF-β2) (human). Description: SPR; BIAcore X100; minimally biotinylated TGF-β2 captured on a neutravidin CM5 chip, max 50 RU; zfBGO variants injected, 2-fold dilution series (500 or 1000 - 31.3 nM); 10 mM CHES, 150 mM NaCl, 3 mM EDTA, 0.01% P20, pH 8.6; 100 µl/min; 1:1 kinetic model; two consecutive repeats.
Assay [5] concerns the target TGF-β2 (growth factor domain, wild type) (human). Put plainly: SPR; BIAcore T200; TGF-β2 WT or TGF-β2 mutants amine-coupled (EDC-NHS) to a CM4 chip, max 400 RU; zfBGO WT or BGZP-C WT injected, 2-fold dilution series 250 - 15.6 nM; 10 mM CHES, 150 mM NaCl, 3 mM EDTA, 0.01% P20, pH 8.0; 100 µl/min; 1:1 kinetic model with drift; three consecutive repeats.
Assay [6] addresses TGF-β2 (Y50A, L51A) (human). The description is as above.

Chain of inhibin A (InhA), mature heterodimer (P05111 233-366, chain 1 of 2): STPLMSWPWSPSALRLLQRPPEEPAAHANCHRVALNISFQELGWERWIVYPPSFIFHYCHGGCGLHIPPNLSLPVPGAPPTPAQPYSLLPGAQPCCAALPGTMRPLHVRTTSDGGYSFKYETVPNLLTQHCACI
Chain of inhibin A (InhA), mature heterodimer (P08476 311-426, chain 2 of 2, further chain): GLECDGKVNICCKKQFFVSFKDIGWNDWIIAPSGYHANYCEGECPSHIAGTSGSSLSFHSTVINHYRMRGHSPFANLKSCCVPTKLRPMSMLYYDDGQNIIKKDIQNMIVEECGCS

For orientation: Kd means the concentration at which binding is half-saturated. As for BGZP-C I161A (domain or fragment), the Kd in assay [1] came out at 1080 nM.

Substance BGZP-C I161Y (domain or fragment) yielded a dissociation constant Kd in assay [1] of 815 nM.

BGZP-C N82A (domain or fragment) returned a dissociation constant Kd in assay [1] of 968 nM.

As to BGZP-C N82Y (domain or fragment), the Kd in assay [1] was found to be 883 nM.

As to “rat betaglycan ZP-C domain (BG_(ZP-C)), mammalian-expressed D88A”, in assay [2] (parent: est. 160), the Kd was determined as 230 nM.

For “rat betaglycan ZP-C domain (BG_(ZP-C)), mammalian-expressed E130A”, in assay [2] (parent: est. 160), the Kd was found to be 1400 nM.

Turning to “rat betaglycan ZP-C domain (BG_(ZP-C)), mammalian-expressed K86A”, in assay [2] (parent: est. 160), the Kd was found to be 70 nM.

Take “rat betaglycan ZP-C domain (BG_(ZP-C)), mammalian-expressed L143A”: the Kd in assay [2] (parent: est. 160) came out at 130 nM.

Take “rat betaglycan ZP-C domain (BG_(ZP-C)), mammalian-expressed M164A”: in assay [2] (parent: est. 160), the Kd was found to be 320 nM.

As for “rat betaglycan ZP-C domain (BG_(ZP-C)), mammalian-expressed M165A”, the Kd in assay [2] (parent: est. 160) worked out at 330 nM.

Take “rat betaglycan ZP-C domain (BG_(ZP-C)), mammalian-expressed Q166A”: the Kd in assay [2] (parent: est. 160) was 200 nM.

As for “rat betaglycan ZP-C domain (BG_(ZP-C)), mammalian-expressed S155A”, the Kd in assay [2] (parent: est. 160) was 290 nM.

With “rat betaglycan ZP-C domain (BG_(ZP-C)), mammalian-expressed W162A”, the Kd in assay [2] (parent: est. 160) was 730 nM.

Consider “rat betaglycan ZP-C domain (BG_(ZP-C)), mammalian-expressed W162A; M165A”, for which, in assay [2] (parent: est. 160), the Kd stood at 1300 nM.

As for “ratBGO-zfBL (ratBGO with the shortened binding loop of zfBGO) (from UniProt P26342 31-360) (domain or fragment)”, the Kd in assay [3] worked out at 88 nM.

Consider “zebrafish betaglycan orphan domain (zfBGO) K316A”, for which the Kd in assay [2] (parent: est. 33) was 130 nM.

As to “zebrafish betaglycan orphan domain (zfBGO) K319A”, the Kd in assay [2] (parent: est. 33) came to 180 nM.

For “zebrafish betaglycan orphan domain (zfBGO), wild type (domain or fragment)”, the Kd in assay [4] stood at 38 nM; in assay [3] it was 86 nM; in assay [5], 148 nM; in assay [6], 205 nM.

zfBGO K316A (domain or fragment): in assay [4], the Kd is 135 nM.

zfBGO K319A (domain or fragment) showed a Kd in assay [4] of 175 nM.

Regarding zfBGO L208A (domain or fragment), the dissociation constant (Kd) in assay [4] was found to be 88 nM.
